In PMC9308218, “FBXL17/spastin axis as a novel therapeutic target of hereditary spastic paraplegia” (Cell & Bioscience, 2022):

Biological target: T1, USP20 (Ubiquitin Specific Peptidase 20) on the HuProt protein microarray (human, UniProt Q9Y2K6 1-914)
T1 construct: ubiquitin specific peptidase 20, human, spot on the HuProt array of full-length recombinant human proteins; source: bought: HuProt protein microarray (CDI Labs), recombinant
Assay: peptide or protein array; HuProt human protein microarray (over 20,000 full-length recombinant human proteins); 3 μg biotinylated His-SPAST on the array for 8 h at 4 °C; detected with streptavidin-Alexa-Fluor 635
Details: both partners purified

T1 sequence (Q9Y2K6 whole entry): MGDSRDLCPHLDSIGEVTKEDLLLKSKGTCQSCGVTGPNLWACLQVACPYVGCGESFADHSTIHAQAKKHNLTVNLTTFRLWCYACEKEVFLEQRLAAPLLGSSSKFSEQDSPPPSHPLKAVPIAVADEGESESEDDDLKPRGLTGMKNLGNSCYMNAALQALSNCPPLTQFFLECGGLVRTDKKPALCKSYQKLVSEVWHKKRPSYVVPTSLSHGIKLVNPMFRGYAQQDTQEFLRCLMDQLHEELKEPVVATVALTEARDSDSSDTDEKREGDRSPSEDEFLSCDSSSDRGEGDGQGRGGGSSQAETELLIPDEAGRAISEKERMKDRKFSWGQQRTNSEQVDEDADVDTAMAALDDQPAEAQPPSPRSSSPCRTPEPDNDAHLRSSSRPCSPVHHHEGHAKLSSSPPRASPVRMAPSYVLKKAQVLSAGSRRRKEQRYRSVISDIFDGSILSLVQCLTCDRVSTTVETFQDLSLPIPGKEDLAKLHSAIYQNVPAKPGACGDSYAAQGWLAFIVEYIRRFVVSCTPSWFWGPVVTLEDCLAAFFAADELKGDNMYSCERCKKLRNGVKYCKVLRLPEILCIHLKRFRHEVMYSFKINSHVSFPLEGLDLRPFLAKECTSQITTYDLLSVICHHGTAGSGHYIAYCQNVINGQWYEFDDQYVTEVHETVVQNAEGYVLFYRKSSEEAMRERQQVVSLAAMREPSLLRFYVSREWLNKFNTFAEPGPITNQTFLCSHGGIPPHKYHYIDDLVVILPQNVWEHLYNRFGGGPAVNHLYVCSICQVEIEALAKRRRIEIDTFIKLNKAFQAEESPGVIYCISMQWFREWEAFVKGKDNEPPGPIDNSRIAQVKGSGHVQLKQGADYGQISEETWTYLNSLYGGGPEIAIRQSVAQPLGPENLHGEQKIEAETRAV

binding result: binds
B1: biotinylated His-SPAST-M1 (natural protein, human, UniProt Q9UBP0 1-616, looked up)
chain: MNSPGGRGKKKGSGGASNPVPPRPPPPCLAPAPPAAGPAPPPESPHKRNLYYFSYPLFVGFALLRLVAFHLGLLFVWLCQRFSRALMAAKRSSGAAPAPASASAPAPVPGGEAERVRVFHKQAFEYISIALRIDEDEKAGQKEQAVEWYKKGIEELEKGIAVIVTGQGEQCERARRLQAKMMTNLVMAKDRLQLLEKMQPVLPFSKSQTDVYNDSTNLACRNGHLQSESGAVPKRKDPLTHTSNSLPRSKTVMKTGSAGLSGHHRAPSYSGLSMVSGVKQGSGPAPTTHKGTPKTNRTNKPSTPTTATRKKKDLKNFRNVDSNLANLIMNEIVDNGTAVKFDDIAGQDLAKQALQEIVILPSLRPELFTGLRAPARGLLLFGPPGNGKTMLAKAVAAESNATFFNISAASLTSKYVGEGEKLVRALFAVARELQPSIIFIDEVDSLLCERREGEHDASRRLKTEFLIEFDGVQSAGDDRVLVMGATNRPQELDEAVLRRFIKRVYVSLPNEETRLLLLKNLLCKQGSPLTQKELAQLARMTDGYSGSDLTALAKDAALGPIRELKPEQVKNMSASEMRNIRLSDFTESLKKIKRSVSPQTLEAYIRWNKDFGDTTV
modifications: biotin (biotinylated, site not stated)
notes: The methods call it His-SPAST; the results call it His-SPAST-M1; also called His-tagged SPAST protein; source: E. coli BL21 (pET28a-His-SPAST), purified (Ni-NTA)
